Test results from patent US20240376151A1, “STAPLED PEPTIDES AND METHODS THEREOF” (FOG PHARMACEUTICALS, INC., priority 2022, published 2024).
Numbered stars: 1 amine (or outer) side, 2 acyl side, 3 side chain; on linkers, the order of the positions; unused ones are H or OH. Bridge positions count the residues as written; N and C are the ends. Ends that are not written are not given here. Phenylene(1,4-NHCOCH2)2 = O=C(C[*:1])Nc1ccc(NC(=O)C[*:2])cc1

Legend:
PPIA = target: T1, PPIA (Homo sapiens, UniProt P62937); experiment: Phage Library Screening with NGS, PPIA; type: binding
T1 construct: Full length PPIA (residues 1-165) with an N-terminal 6×his-yBBR-TEV tag; 6×his-yBBR-TEV (N); made in house; host or cells: E. coli BL21 (DE3) CodonPlus RIPL
T1 sequence (P62937 whole entry, the tested form may be a part): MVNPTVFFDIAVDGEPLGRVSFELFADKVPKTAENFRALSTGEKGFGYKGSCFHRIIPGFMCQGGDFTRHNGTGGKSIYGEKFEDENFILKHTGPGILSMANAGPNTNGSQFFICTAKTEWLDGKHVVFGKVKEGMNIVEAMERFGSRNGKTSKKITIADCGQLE

MDM2 = target: T2, MDM2 (Homo sapiens, UniProt Q00987); experiment: Naive Library Presenter Screening (phage, NGS), MDM2; type: binding; details: for interaction data, BLANK: Blank = Media only
T2 construct: made in house
T2 sequence (Q00987 25-109): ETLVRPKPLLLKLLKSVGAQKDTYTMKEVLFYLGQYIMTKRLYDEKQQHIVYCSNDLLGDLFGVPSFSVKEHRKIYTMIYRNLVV

[1] = target concentration 1000, first column
[2] = target concentration 1000, second column
[3] = MDM2 clusters (C82, C85), first column
[4] = MDM2 clusters (C82, C85), second column
[5] = MDM2 clusters (C82, C85), target concentration 10 nM
[6] = MDM2 clusters (C82, C85), target concentration 30 nM
[7] = MDM2 clusters (C82, C85), target concentration 100 nM
[8] = MDM2 clusters (C82, C85), target concentration 300 nM
[9] = MDM2 clusters (C82, C85), target concentration 1000 nM, first column
[10] = MDM2 clusters (C82, C85), target concentration 1000 nM, second column
[11] = MDM2 target concentration 10 nM
[12] = MDM2 target concentration 30 nM
[13] = MDM2 target concentration 100 nM
[14] = MDM2 target concentration 300 nM
[15] = MDM2 target concentration 1000 nM, first column
[16] = MDM2 target concentration 1000 nM, second column

Row | phage screen counts, Target Concentration 10 (PPIA) | phage screen counts, Target Concentration 30 (PPIA) | phage screen counts, Target Concentration 100 (PPIA) | phage screen counts, Target Concentration 300 (PPIA) | phage screen counts, Target Concentration 1000 (PPIA; [1]) | phage screen counts, Target Concentration 1000 (PPIA; [2]) | interaction data, BLANK (MDM2; [3]) | interaction data, BLANK (MDM2; [4]) | interaction data at Target Concentration 10 (MDM2; [5]) | interaction data at Target Concentration 30 (MDM2; [6]) | interaction data at Target Concentration 100 (MDM2; [7]) | interaction data at Target Concentration 300 (MDM2; [8]) | interaction data at Target Concentration 1000 (MDM2; [9]) | interaction data at Target Concentration 1000 (MDM2; [10]) | other results | Sequence
1 | 0 | 0 | 0 | 0 | 10 | 29 |  |  |  |  |  |  |  |  |  | PTCHVQAWYCW
2 | 0 | 0 | 0 | 0 | 20 | 26 |  |  |  |  |  |  |  |  |  | PDCHIRAYMCN
3 | 0 | 0 | 21 | 27 | 125 | 8 |  |  |  |  |  |  |  |  |  | DPAQLNCHVAAFFCFQS
4 | 0 | 0 | 1 | 5 | 8 | 18 |  |  |  |  |  |  |  |  |  | PDCHIYAFYCL
5 | 0 | 7 | 116 | 208 | 201 | 121 |  |  |  |  |  |  |  |  |  | DPAAHDCHIAAYWCLNY
6 | 6 | 10 | 176 | 197 | 190 | 227 |  |  |  |  |  |  |  |  |  | DPASYDCHVAAYFCNFA
7 | 0 | 0 | 0 | 1 | 12 | 12 |  |  |  |  |  |  |  |  |  | PNCHVEAWYCI
8 | 0 | 0 | 0 | 14 | 46 | 22 |  |  |  |  |  |  |  |  |  | PFCHIEAYYCW
9 | 0 | 0 | 0 | 4 | 6 | 35 |  |  |  |  |  |  |  |  |  | PDCHIQAYICH
10 | 0 | 0 | 0 | 4 | 5 | 19 |  |  |  |  |  |  |  |  |  | PNCHLYAWECY
11 |  |  |  |  |  |  | 0 | 0 | 0 | 42 | 149 | 156 | 202 | 149 |  | DPAHRQCFTAAWRCMMT (linker 7-14 via Phenylene(1,4-NHCOCH2)2 (inferred))
12 |  |  |  |  |  |  |  |  |  |  |  |  |  |  | interaction data at Target Concentration 10 (MDM2; [11]): 7; interaction data at Target Concentration 30 (MDM2; [12]): 11; interaction data at Target Concentration 100 (MDM2; [13]): 0; interaction data at Target Concentration 300 (MDM2; [14]): 0; interaction data at Target Concentration 1000 (MDM2; [15]): 5; interaction data at Target Concentration 1000 (MDM2; [16]): 6 | DPADSECFQAASDCQYW (linker 7-14 via Phenylene(1,4-NHCOCH2)2 (inferred))
13 |  |  |  |  |  |  | 0 | 0 | 0 | 53 | 106 | 232 | 148 | 261 |  | DPARRECMDAAFWCQWV (DPARRECMDAAFWCQWV-NH2; linker 7-14 via Phenylene(1,4-NHCOCH2)2 (inferred))
14 |  |  |  |  |  |  | 0 | 0 | 49 | 104 | 206 | 192 | 185 | 176 |  | DPAMSNCFMAAWECLIQ (linker 7-14 via Phenylene(1,4-NHCOCH2)2 (inferred); not fully specified (C-terminus))
15 |  |  |  |  |  |  | 0 | 0 | 0 | 0 | 35 | 47 | 52 | 29 |  | DPAQSDCFQAAWECVAN (DPAQSDCFQAAWECVAN-NH2; linker 7-14 via Phenylene(1,4-NHCOCH2)2 (inferred))
16 |  |  |  |  |  |  |  |  |  |  |  |  |  |  | interaction data at Target Concentration 10 (MDM2; [11]): 1; interaction data at Target Concentration 30 (MDM2; [12]): 0; interaction data at Target Concentration 100 (MDM2; [13]): 51; interaction data at Target Concentration 300 (MDM2; [14]): 22; interaction data at Target Concentration 1000 (MDM2; [15]): 20; interaction data at Target Concentration 1000 (MDM2; [16]): 23 | DPADNRCFQAAWDCAFW (linker 7-14 via Phenylene(1,4-NHCOCH2)2 (inferred))
17 |  |  |  |  |  |  | 0 | 0 | 0 | 23 | 158 | 230 | 135 |  |  | DPAERNCFTAAWQCMVW (linker 7-14 via Phenylene(1,4-NHCOCH2)2 (inferred))
18 |  |  |  |  |  |  |  |  |  |  |  |  |  |  | interaction data at Target Concentration 10 (MDM2; [11]): 2; interaction data at Target Concentration 30 (MDM2; [12]): 57; interaction data at Target Concentration 100 (MDM2; [13]): 241; interaction data at Target Concentration 300 (MDM2; [14]): 559; interaction data at Target Concentration 1000 (MDM2; [15]): 336; interaction data at Target Concentration 1000 (MDM2; [16]): 447 | DPASEACFQAAWDCVSW (DPASEACFQAAWDCVSW-NH2; linker 7-14 via Phenylene(1,4-NHCOCH2)2 (inferred))
19 |  |  |  |  |  |  | 0 | 0 | 0 | 8 | 28 | 27 | 33 | 14 |  | DPASAECFFAAWQCIAT (DPASAECFFAAWQCIAT-NH2; linker 7-14 via Phenylene(1,4-NHCOCH2)2 (inferred))
20 |  |  |  |  |  |  | 0 | 0 | 0 | 1 | 94 | 107 | 120 | 114 |  | DPARQDCFSAAWMCMAI (DPARQDCFSAAWMCMAI-NH2; linker 7-14 via Phenylene(1,4-NHCOCH2)2 (inferred))
21 |  |  |  |  |  |  | 0 | 0 | 0 | 12 | 132 | 166 | 104 | 237 |  | DPAQQDCFLAAWDCVWQ (DPAQQDCFLAAWDCVWQ-NH2; linker 7-14 via Phenylene(1,4-NHCOCH2)2 (inferred))
